According to the supplement of paper PMC11908140:

B1: library; numbered along this chain (parent)
chain: MRKPRAAVGSGHRKQAASQEGRQKHAKNNSQAKPSACDGLARQPEEVVLQASVSSYHLFRDVAEVTAFRGSLLSWYDQEKRDLPWRRRAEDEMDLDRRAYAVWVSEVMLQQTQVATVINYYTGWMQKWPTLQDLASASLEEVNQLWAGLGYYSRGRRLQEGARKVVEELGGHMPRTAETLQQLLPGVGRYTAGAIASIAFGQATGVVDGNVARVLCRVRAIGADPSSTLVSQQLWGLAQQLVDPARPGDFNQAAMELGATVCTPQRPLCSQCPVESLCRARQRVEQEQLLASGSLSGSPDVEECAPNTGQCHLCLPPSEPWDQTLGVVNFPRKASRKPPREESSATCVLEQPGALGAQILLVQRPNSGLLAGLWEFPSVTWEPSEQLQRKALLQELQRWAGPLPATHLRHLGEVVHTFSHIKLTYQVYGLALEGQTPVTTVPPGARWLTQEEFHTAAVSTAMKKVFRVYQGQQPGTCMGSKRSQVSSPCSRKKPRMGQQVLDNFFRSHISTDAHSLNSAAQ

Variants of: B1
Assay: 8OG:A repair function score (normalized; synonymous = 0, nonsense = -1) (normalized log-likelihood score); higher = more repair activity (WT-like)
Settings: with 8OG:A DNA repair reporter (GFP) in HEK-293 MUTYH KO cells
Protocol: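 Saturation mutagenesis (NNN codon scan) of the MUTYH cDNA (521-aa nuclear isoform NM_001048174.1 / NP_001041639), stably expressed under doxycycline induction in HEK-293 MUTYH knockout cells. Cells were co-transfected with an 8OG:A-bearing GFP repair reporter plus mCherry and sorted 72 h later into GFP+ and GFP− bins, three replicates per tile. The Rosace log2 enrichment (GFP+ vs GFP−) was converted per tile to a normalized function score with synonymous variants centered at 0 and nonsense variants (codons 1-471) at -1; low-abundance variants were removed.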

Variant	8OG:A repair function score
MRKPRAAVGSGHRKQAASQEGRQKHAKNNSQAKPSACDGLARQPEEVVLQASVSSYHLFRDVAEVTAFRGSLLSWYDQEKRDLPWRRRAEDEMDLDRRAYAVWVSEVMLQQTQVATVINYYTGWMQKWPTLQDYASASLEEVNQLWAGLGYYSRGRRLQEGARKVVEELGGHMPRTAETLQQLLPGVGRYTAGAIASIAFGQATGVVDGNVARVLCRVRAIGADPSSTLVSQQLWGLAQQLVDPARPGDFNQAAMELGATVCTPQRPLCSQCPVESLCRARQRVEQEQLLASGSLSGSPDVEECAPNTGQCHLCLPPSEPWDQTLGVVNFPRKASRKPPREESSATCVLEQPGALGAQILLVQRPNSGLLAGLWEFPSVTWEPSEQLQRKALLQELQRWAGPLPATHLRHLGEVVHTFSHIKLTYQVYGLALEGQTPVTTVPPGARWLTQEEFHTAAVSTAMKKVFRVYQGQQPGTCMGSKRSQVSSPCSRKKPRMGQQVLDNFFRSHISTDAHSLNSAAQ [L134Y]	-0.464
MRKPRAAVGSGHRKQAASQEGRQKHAKNNSQAKPSACDGLARQPEEVVLQASVSSYHLFRDVAEVTAFRGSLLSWYDQEKRDLPWRRRAEDEMDLDRRAYAVWVSEVMLQQTQVATVINYYTGWMQKWPTLQDLISASLEEVNQLWAGLGYYSRGRRLQEGARKVVEELGGHMPRTAETLQQLLPGVGRYTAGAIASIAFGQATGVVDGNVARVLCRVRAIGADPSSTLVSQQLWGLAQQLVDPARPGDFNQAAMELGATVCTPQRPLCSQCPVESLCRARQRVEQEQLLASGSLSGSPDVEECAPNTGQCHLCLPPSEPWDQTLGVVNFPRKASRKPPREESSATCVLEQPGALGAQILLVQRPNSGLLAGLWEFPSVTWEPSEQLQRKALLQELQRWAGPLPATHLRHLGEVVHTFSHIKLTYQVYGLALEGQTPVTTVPPGARWLTQEEFHTAAVSTAMKKVFRVYQGQQPGTCMGSKRSQVSSPCSRKKPRMGQQVLDNFFRSHISTDAHSLNSAAQ [A135I]	-0.611
MRKPRAAVGSGHRKQAASQEGRQKHAKNNSQAKPSACDGLARQPEEVVLQASVSSYHLFRDVAEVTAFRGSLLSWYDQEKRDLPWRRRAEDEMDLDRRAYAVWVSEVMLQQTQVATVINYYTGWMQKWPTLQDLLSASLEEVNQLWAGLGYYSRGRRLQEGARKVVEELGGHMPRTAETLQQLLPGVGRYTAGAIASIAFGQATGVVDGNVARVLCRVRAIGADPSSTLVSQQLWGLAQQLVDPARPGDFNQAAMELGATVCTPQRPLCSQCPVESLCRARQRVEQEQLLASGSLSGSPDVEECAPNTGQCHLCLPPSEPWDQTLGVVNFPRKASRKPPREESSATCVLEQPGALGAQILLVQRPNSGLLAGLWEFPSVTWEPSEQLQRKALLQELQRWAGPLPATHLRHLGEVVHTFSHIKLTYQVYGLALEGQTPVTTVPPGARWLTQEEFHTAAVSTAMKKVFRVYQGQQPGTCMGSKRSQVSSPCSRKKPRMGQQVLDNFFRSHISTDAHSLNSAAQ [A135L]	-0.28
MRKPRAAVGSGHRKQAASQEGRQKHAKNNSQAKPSACDGLARQPEEVVLQASVSSYHLFRDVAEVTAFRGSLLSWYDQEKRDLPWRRRAEDEMDLDRRAYAVWVSEVMLQQTQVATVINYYTGWMQKWPTLQDLDSASLEEVNQLWAGLGYYSRGRRLQEGARKVVEELGGHMPRTAETLQQLLPGVGRYTAGAIASIAFGQATGVVDGNVARVLCRVRAIGADPSSTLVSQQLWGLAQQLVDPARPGDFNQAAMELGATVCTPQRPLCSQCPVESLCRARQRVEQEQLLASGSLSGSPDVEECAPNTGQCHLCLPPSEPWDQTLGVVNFPRKASRKPPREESSATCVLEQPGALGAQILLVQRPNSGLLAGLWEFPSVTWEPSEQLQRKALLQELQRWAGPLPATHLRHLGEVVHTFSHIKLTYQVYGLALEGQTPVTTVPPGARWLTQEEFHTAAVSTAMKKVFRVYQGQQPGTCMGSKRSQVSSPCSRKKPRMGQQVLDNFFRSHISTDAHSLNSAAQ [A135D]	-0.636
MRKPRAAVGSGHRKQAASQEGRQKHAKNNSQAKPSACDGLARQPEEVVLQASVSSYHLFRDVAEVTAFRGSLLSWYDQEKRDLPWRRRAEDEMDLDRRAYAVWVSEVMLQQTQVATVINYYTGWMQKWPTLQDLHSASLEEVNQLWAGLGYYSRGRRLQEGARKVVEELGGHMPRTAETLQQLLPGVGRYTAGAIASIAFGQATGVVDGNVARVLCRVRAIGADPSSTLVSQQLWGLAQQLVDPARPGDFNQAAMELGATVCTPQRPLCSQCPVESLCRARQRVEQEQLLASGSLSGSPDVEECAPNTGQCHLCLPPSEPWDQTLGVVNFPRKASRKPPREESSATCVLEQPGALGAQILLVQRPNSGLLAGLWEFPSVTWEPSEQLQRKALLQELQRWAGPLPATHLRHLGEVVHTFSHIKLTYQVYGLALEGQTPVTTVPPGARWLTQEEFHTAAVSTAMKKVFRVYQGQQPGTCMGSKRSQVSSPCSRKKPRMGQQVLDNFFRSHISTDAHSLNSAAQ [A135H]	-0.353
MRKPRAAVGSGHRKQAASQEGRQKHAKNNSQAKPSACDGLARQPEEVVLQASVSSYHLFRDVAEVTAFRGSLLSWYDQEKRDLPWRRRAEDEMDLDRRAYAVWVSEVMLQQTQVATVINYYTGWMQKWPTLQDLNSASLEEVNQLWAGLGYYSRGRRLQEGARKVVEELGGHMPRTAETLQQLLPGVGRYTAGAIASIAFGQATGVVDGNVARVLCRVRAIGADPSSTLVSQQLWGLAQQLVDPARPGDFNQAAMELGATVCTPQRPLCSQCPVESLCRARQRVEQEQLLASGSLSGSPDVEECAPNTGQCHLCLPPSEPWDQTLGVVNFPRKASRKPPREESSATCVLEQPGALGAQILLVQRPNSGLLAGLWEFPSVTWEPSEQLQRKALLQELQRWAGPLPATHLRHLGEVVHTFSHIKLTYQVYGLALEGQTPVTTVPPGARWLTQEEFHTAAVSTAMKKVFRVYQGQQPGTCMGSKRSQVSSPCSRKKPRMGQQVLDNFFRSHISTDAHSLNSAAQ [A135N]	-0.227
MRKPRAAVGSGHRKQAASQEGRQKHAKNNSQAKPSACDGLARQPEEVVLQASVSSYHLFRDVAEVTAFRGSLLSWYDQEKRDLPWRRRAEDEMDLDRRAYAVWVSEVMLQQTQVATVINYYTGWMQKWPTLQDLMSASLEEVNQLWAGLGYYSRGRRLQEGARKVVEELGGHMPRTAETLQQLLPGVGRYTAGAIASIAFGQATGVVDGNVARVLCRVRAIGADPSSTLVSQQLWGLAQQLVDPARPGDFNQAAMELGATVCTPQRPLCSQCPVESLCRARQRVEQEQLLASGSLSGSPDVEECAPNTGQCHLCLPPSEPWDQTLGVVNFPRKASRKPPREESSATCVLEQPGALGAQILLVQRPNSGLLAGLWEFPSVTWEPSEQLQRKALLQELQRWAGPLPATHLRHLGEVVHTFSHIKLTYQVYGLALEGQTPVTTVPPGARWLTQEEFHTAAVSTAMKKVFRVYQGQQPGTCMGSKRSQVSSPCSRKKPRMGQQVLDNFFRSHISTDAHSLNSAAQ [A135M]	-0.467
MRKPRAAVGSGHRKQAASQEGRQKHAKNNSQAKPSACDGLARQPEEVVLQASVSSYHLFRDVAEVTAFRGSLLSWYDQEKRDLPWRRRAEDEMDLDRRAYAVWVSEVMLQQTQVATVINYYTGWMQKWPTLQDLKSASLEEVNQLWAGLGYYSRGRRLQEGARKVVEELGGHMPRTAETLQQLLPGVGRYTAGAIASIAFGQATGVVDGNVARVLCRVRAIGADPSSTLVSQQLWGLAQQLVDPARPGDFNQAAMELGATVCTPQRPLCSQCPVESLCRARQRVEQEQLLASGSLSGSPDVEECAPNTGQCHLCLPPSEPWDQTLGVVNFPRKASRKPPREESSATCVLEQPGALGAQILLVQRPNSGLLAGLWEFPSVTWEPSEQLQRKALLQELQRWAGPLPATHLRHLGEVVHTFSHIKLTYQVYGLALEGQTPVTTVPPGARWLTQEEFHTAAVSTAMKKVFRVYQGQQPGTCMGSKRSQVSSPCSRKKPRMGQQVLDNFFRSHISTDAHSLNSAAQ [A135K]	-0.317
MRKPRAAVGSGHRKQAASQEGRQKHAKNNSQAKPSACDGLARQPEEVVLQASVSSYHLFRDVAEVTAFRGSLLSWYDQEKRDLPWRRRAEDEMDLDRRAYAVWVSEVMLQQTQVATVINYYTGWMQKWPTLQDLESASLEEVNQLWAGLGYYSRGRRLQEGARKVVEELGGHMPRTAETLQQLLPGVGRYTAGAIASIAFGQATGVVDGNVARVLCRVRAIGADPSSTLVSQQLWGLAQQLVDPARPGDFNQAAMELGATVCTPQRPLCSQCPVESLCRARQRVEQEQLLASGSLSGSPDVEECAPNTGQCHLCLPPSEPWDQTLGVVNFPRKASRKPPREESSATCVLEQPGALGAQILLVQRPNSGLLAGLWEFPSVTWEPSEQLQRKALLQELQRWAGPLPATHLRHLGEVVHTFSHIKLTYQVYGLALEGQTPVTTVPPGARWLTQEEFHTAAVSTAMKKVFRVYQGQQPGTCMGSKRSQVSSPCSRKKPRMGQQVLDNFFRSHISTDAHSLNSAAQ [A135E]	-0.996
MRKPRAAVGSGHRKQAASQEGRQKHAKNNSQAKPSACDGLARQPEEVVLQASVSSYHLFRDVAEVTAFRGSLLSWYDQEKRDLPWRRRAEDEMDLDRRAYAVWVSEVMLQQTQVATVINYYTGWMQKWPTLQDLCSASLEEVNQLWAGLGYYSRGRRLQEGARKVVEELGGHMPRTAETLQQLLPGVGRYTAGAIASIAFGQATGVVDGNVARVLCRVRAIGADPSSTLVSQQLWGLAQQLVDPARPGDFNQAAMELGATVCTPQRPLCSQCPVESLCRARQRVEQEQLLASGSLSGSPDVEECAPNTGQCHLCLPPSEPWDQTLGVVNFPRKASRKPPREESSATCVLEQPGALGAQILLVQRPNSGLLAGLWEFPSVTWEPSEQLQRKALLQELQRWAGPLPATHLRHLGEVVHTFSHIKLTYQVYGLALEGQTPVTTVPPGARWLTQEEFHTAAVSTAMKKVFRVYQGQQPGTCMGSKRSQVSSPCSRKKPRMGQQVLDNFFRSHISTDAHSLNSAAQ [A135C]	-0.244
MRKPRAAVGSGHRKQAASQEGRQKHAKNNSQAKPSACDGLARQPEEVVLQASVSSYHLFRDVAEVTAFRGSLLSWYDQEKRDLPWRRRAEDEMDLDRRAYAVWVSEVMLQQTQVATVINYYTGWMQKWPTLQDLFSASLEEVNQLWAGLGYYSRGRRLQEGARKVVEELGGHMPRTAETLQQLLPGVGRYTAGAIASIAFGQATGVVDGNVARVLCRVRAIGADPSSTLVSQQLWGLAQQLVDPARPGDFNQAAMELGATVCTPQRPLCSQCPVESLCRARQRVEQEQLLASGSLSGSPDVEECAPNTGQCHLCLPPSEPWDQTLGVVNFPRKASRKPPREESSATCVLEQPGALGAQILLVQRPNSGLLAGLWEFPSVTWEPSEQLQRKALLQELQRWAGPLPATHLRHLGEVVHTFSHIKLTYQVYGLALEGQTPVTTVPPGARWLTQEEFHTAAVSTAMKKVFRVYQGQQPGTCMGSKRSQVSSPCSRKKPRMGQQVLDNFFRSHISTDAHSLNSAAQ [A135F]	-0.316
MRKPRAAVGSGHRKQAASQEGRQKHAKNNSQAKPSACDGLARQPEEVVLQASVSSYHLFRDVAEVTAFRGSLLSWYDQEKRDLPWRRRAEDEMDLDRRAYAVWVSEVMLQQTQVATVINYYTGWMQKWPTLQDLGSASLEEVNQLWAGLGYYSRGRRLQEGARKVVEELGGHMPRTAETLQQLLPGVGRYTAGAIASIAFGQATGVVDGNVARVLCRVRAIGADPSSTLVSQQLWGLAQQLVDPARPGDFNQAAMELGATVCTPQRPLCSQCPVESLCRARQRVEQEQLLASGSLSGSPDVEECAPNTGQCHLCLPPSEPWDQTLGVVNFPRKASRKPPREESSATCVLEQPGALGAQILLVQRPNSGLLAGLWEFPSVTWEPSEQLQRKALLQELQRWAGPLPATHLRHLGEVVHTFSHIKLTYQVYGLALEGQTPVTTVPPGARWLTQEEFHTAAVSTAMKKVFRVYQGQQPGTCMGSKRSQVSSPCSRKKPRMGQQVLDNFFRSHISTDAHSLNSAAQ [A135G]	-0.074
